Experimental data from the supplement of paper PMC5998384.

How the values were obtained:
[1] = tested on: HeLa Kyoto; assay: solubility in G1/S (NP-40 vs SDS abundance) (log2 ratio); higher = more soluble; conditions: cell cycle stage: G1/S
[2] = tested on: HeLa Kyoto; assay: solubility change mitosis vs G1/S (difference of NP-40 vs SDS log2 ratios) (log2 ratio difference); higher = more soluble in mitosis
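For solubility change mitosis vs G1/S (difference of NP-40 vs SDS log2 ratios) in this document: synchronized HeLa Kyoto cells (double thymidine block for G1/S, nocodazole release for mitosis), protein amounts in NP-40 versus SDS lysates quantified by mass spectrometry, three biological replicates.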
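For solubility in G1/S (NP-40 vs SDS abundance) in this document: HeLa Kyoto cells arrested at G1/S by double thymidine block, proteins quantified by TMT10plex mass spectrometry in mild NP-40 versus SDS extracts, three biological replicates.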

| Sequence | solubility in G1/S (log2) [1] | solubility change mitosis (log2) [2] |
| --- | --- | --- |
| MLGTLRAMEGEDVEDDQLLQKLRASRRRFQRRMQRLIEKYNQPFEDTPVVQMATLTYETPQGLRIWGGRLIKERNEGEIQDSSMKPADRTDGSVQAAAWGPELPSHRTVLGADSKSGEVDATSDQEESVAWALAPAVPQSPLKNELRRKYLTQVDILLQGAEYFECAGNRAGRDVRVTPLPSLASPAVPAPGYCSRISRKSPGDPAKPASSPREWDPLHPSSTDMALVPRNDSLSLQETSSSSFLSSQPFEDDDICNVTISDLYAGMLHSMSRLLSTKPSSIISTKTFIMQNWNSRRRHRYKSRMNKTYCKGARRSQRSSKENFIPCSEPVKGTGALRDCKNVLDVSCRKTGLKLEKAFLEVNRPQIHKLDPSWKERKVTPSKYSSLIYFDSSATYNLDEENRFRTLKWLISPVKIVSRPTIRQGHGENRQREIEIRFDQLHREYCLSPRNQPRRMCLPDSWAMNMYRGGPASPGGLQGLETRRLSLPSSKAKAKSLSEAFENLGKRSLEAGRCLPKSDSSSSLPKTNPTHSATRPQQTSDLHVQGNSSGIFRKSVSPSKTLSVPDKEVPGHGRNRYDEIKEEFDKLHQKYCLKSPGQMTVPLCIGVSTDKASMEVRYQTEGFLGKLNPDPHFQGFQKLPSSPLGCRKSLLGSTAIEAPSSTCVARAITRDGTRDHQFPAKRPRLSEPQGSGRQGNSLGASDGVDNTVRPGDQGSSSQPNSEERGENTSYRMEEKSDFMLEKLETKSV [HJURP] | -0.154 | 0.197 |
| MLLGLAAMELKVWVDGIQRVVCGVSEQTTCQEVVIALAQAIGQTGRFVLVQRLREKERQLLPQECPVGAQATCGQFASDVQFVLRRTGPSLAGRPSSDSCPPPERCLIRASLPVKPRAALGCEPRKTLTPEPAPSLSRPGPAAPVTPTPGCCTDLRGLELRVQRNAEELGHEAFWEQELRREQAREREGQARLQALSAATAEHAARLQALDAQARALEAELQLAAEAPGPPSPMASATERLHQDLAVQERQSAEVQGSLALVSRALEAAERALQAQAQELEELNRELRQCNLQQFIQQTGAALPPPPRPDRGPPGTQGPLPPAREESLLGAPSESHAGAQPRPRGGPHDAELLEVAAAPAPEWCPLAAQPQAL [RASSF7] | 0.299 | 0.0497 |
| MLLSVTSRPGISTFGYNRNNKKPYVSLAQQMAPPSPSNSTPNSSSGSNGNDQLSKTNLYIRGLQPGTTDQDLVKLCQPYGKIVSTKAILDKTTNKCKGYGFVDFDSPSAAQKAVTALKASGVQAQMAKQQEQDPTNLYISNLPLSMDEQELEGMLKPFGQVISTRILRDTSGTSRGVGFARMESTEKCEAIITHFNGKYIKTPPGVPAPSDPLLCKFADGGPKKRQNQGKFVQNGRAWPRNADMGVMALTYDPTTALQNGFYPAPYNITPNRMLAQSALSPYLSSPVSSYQRVTQTSPLQVPNPSWMHHHSYLMQPSGSVLTPGMDHPISLQPASMMGPLTQQLGHLSLSSTGTYMPTAAAMQGAYISQYTPVPSSSVSVEESSGQQNQVAVDAPSEHGVYSFQFNK [RBMS2] | 0.474 | 0.0678 |
| MLPEAGSLWLLKLLRDIQLAQFYWPILEELNVTRPEHFDFVKPEDLDGIGMGRPAQRRLSEALKRLRSGPKSKNWVYKILGGFAPEHKEPTLPSDSPRHLPEPEGGLKCLIPEGAVCRGELLGSGCFGVVHRGLWTLPSGKSVPVAVKSLRVGPEGPMGTELGDFLREVSVMMNLEHPHVLRLHGLVLGQPLQMVMELAPLGSLHARLTAPAPTPPLLVALLCLFLRQLAGAMAYLGARGLVHRDLATRNLLLASPRTIKVADFGLVRPLGGARGRYVMGGPRPIPYAWCAPESLRHGAFSSASDVWMFGVTLWEMFSGGEEPWAGVPPYLILQRLEDRARLPRPPLCSRALYSLALRCWAPHPADRPSFSHLEGLLQEAGPSEACCVRDVTEPGALRMETGDPITVIEGSSSFHSPDSTIWKGQNGRTFKVGSFPASAVTLADAGGLPATRPVHRGTPARGDQHPGSIDGDRKKANLWDAPPARGQRRNMPLERMKGISRSLESVLSLGPRPTGGGSSPPEIRQARAVPQGPPGLPPRPPLSSSSPQPSQPSRERLPWPKRKPPHNHPMGMPGARKAAALSGGLLSDPELQRKIMEVELSVHGVTHQECQTALGATGGDVVSAIRNLKVDQLFHLSSRSRADCWRILEHYQWDLSAASRYVLARP [TNK1] | 0.0271 | -0.0434 |
